The results in this text go back to US7749694.

The target of assay [1] is pertactin ectodomain (Prn-E) (Bordetella (species not stated)). Nature of the assay: isothermal titration calorimetry (ITC).
Assay [2] has the same target. Nature of the assay: static light scattering.

Substance “Mtd-P1 (major tropism determinant variant of Bordetella bacteriophage BPP-1) (from UniProt Q775D6 1-381)” yielded a Kd in assay [1] of 3 µM. Further, the stoichiometry of association between Mtd and Prn-E (Mtd monomers per Prn-E (ratio 3:1)) in assay [2] came out at 3.
